Biological target: T1, CEACAM5 (R&D Systems, 4128-CM-050) (human, UniProt P06731 35-685)
T1 construct: Immobilised on the ELISA plate; also called human CEACAM5
T1 sequence (looked up): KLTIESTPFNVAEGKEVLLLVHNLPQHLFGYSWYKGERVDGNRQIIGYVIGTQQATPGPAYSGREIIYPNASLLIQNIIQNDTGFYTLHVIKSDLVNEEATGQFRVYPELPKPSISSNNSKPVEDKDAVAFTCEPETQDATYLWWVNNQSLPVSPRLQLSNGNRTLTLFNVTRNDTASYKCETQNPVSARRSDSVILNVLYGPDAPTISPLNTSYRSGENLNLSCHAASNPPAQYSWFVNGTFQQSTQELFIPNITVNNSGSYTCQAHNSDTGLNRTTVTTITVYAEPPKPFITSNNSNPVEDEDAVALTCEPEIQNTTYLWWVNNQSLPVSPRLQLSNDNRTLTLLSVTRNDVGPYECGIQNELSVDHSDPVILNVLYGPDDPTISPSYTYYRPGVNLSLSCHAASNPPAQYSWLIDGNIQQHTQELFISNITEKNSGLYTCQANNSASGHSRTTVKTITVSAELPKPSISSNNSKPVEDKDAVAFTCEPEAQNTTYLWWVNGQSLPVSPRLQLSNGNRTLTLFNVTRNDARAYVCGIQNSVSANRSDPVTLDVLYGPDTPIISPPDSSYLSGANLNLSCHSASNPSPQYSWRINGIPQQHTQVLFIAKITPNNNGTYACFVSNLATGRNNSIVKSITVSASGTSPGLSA
Experiment: ELISA on immobilised CEACAM5, 4-parameter fit, duplicate
Description: Each anti-human CEACAM5 antibody Fab fragment conjugate prepared in Example 2 was subjected to ELISA to evaluate the binding activity thereof to CEACAM5. In the present test, a phosphate buffer (Nacalai Tesque Inc., 0.1 mol/L-Phosphate Buffer Solution (pH 7.2)) prepared to 10 mM by diluting 10-fold with distilled water was used as a solvent for an antigen immobilization liquid, and 20×PBS/Tween 20 Buffer (Thermo Fisher Scientific Inc., 28352) diluted 20-fold with distilled water was used as a wash liquid. In addition, for bovine serum albumin (BSA) used in the present test, 30% Bovine Serum Albumin solution (Sigma-Aldrich, Inc., A9576-50ML) was added in an appropriate proportion for use. CEACAM5 (R&D Systems, 4128-CM-050) was diluted with a 10 mM phosphate buffer (pH 7.2) to 0.1 μg/mL, and added to a Nunc MaxiSorp White 384 plate (Nunc, 4603272) at 30 μL per well, and the plate was incubated overnight at 4° C. for immobilization. The CEACAM5 immobilization liquid was removed by reverse centrifugation, and then blocking was carried out by adding a PBS/Tween 20 buffer containing 5.0% BSA. Thereafter, the blocking solution was removed by reverse centrifugation, a solution of each CEACAM5 antibody Fab² fragment conjugate described above or a Fab² fragment having no labeling portion (PB009-01) as a control at about 10000 ng/mL was diluted in 14 steps by 3-fold dilution using a PBS/Tween 20 buffer containing 1.0% BSA, and 30 μL was added per well and incubated at room temperature for 60 minutes. The plate was washed 3 times with a PBS/Tween 20 buffer, and Horseradish Peroxidase (HRP)-labeled goat anti-human IgG (H+L chain) antibody (MBL Life Sciences, 206) diluted 1000-fold using a PBS/Tween 20 buffer containing 5.0% BSA was added at 30 μL per well and incubated at room temperature for 30 minutes. The plate was washed 3 times with a PBS/Tween 20 buffer, and ECL Prime Western Blotting DETECTION Reagent (GE Healthcare, RPN2232) as a substrate was added at 30 μL per well. The substrate was incubated at room temperature for 15 minutes, and then a signal value thereof was measured using an Envision counter (PerkinElmer, Inc.).
The test for each antibody was carried out in duplicate, and an EC₅₀ value was calculated using a 4-parameter logistic curve model.

B1: (Y-S1-X)p-Fab^2 with Y Gd/DOTA, S1 spacer (a), X -Gly-Lys*-Z2(#N)- (Fab, V domains shown)
VH: EVQLVESGGGLVQPGGSLRLSCAASGFNIRDTYMHWVRQAPGKGLEWVARIDPANGNSRYVPKFQGRFTISADTSRNTAYLQMNSLRAEDTAVYYCAPFGYYVSDYAMAYWGQGTLVTVSS
VL: DIQLTQSPSSLSASVGDRVTITCRAGESVDIFGVGFLHWYQQKPGKAPKLLIYRASNLESGIPSRFSGSGSRTDFTLTISSLQPEDFATYYCQQTNEDPYTFGQGTKVEIKR
modifications: labeling may sit on this chain; sites not stated; labeling portion (MW 936) on amino groups of the Fab, sites and chain not stated; 1-3 per Fab by MS
notes: also called Ex-No 23; conjugate 23
EC50: 0.33 nM

B2: (Y-S1-X)p-Fab^2 with Y Gd/DOTA, S1 -NH-CH2-(1,4-Ph)-C(═O)-, X -Met-Gly-Lys*-Z2(#S)- (Fab, V domains shown)
VH: EVQLVESGGGLVQPGGSLRLSCAASGFNIRDTYMHWVRQAPGKGLEWVARIDPANGNSRYVPKFQGRFTISADTSRNTAYLQMNSLRAEDTAVYYCAPFGYYVSDYAMAYWGQGTLVTVSS
VL: DIQLTQSPSSLSASVGDRVTITCRAGESVDIFGVGFLHWYQQKPGKAPKLLIYRASNLESGIPSRFSGSGSRTDFTLTISSLQPEDFATYYCQQTNEDPYTFGQGTKVEIKR
modifications: labeling may sit on this chain; sites not stated; labeling portion (MW 1190) on amino groups of the Fab, sites and chain not stated; 1-3 per Fab by MS
notes: also called Ex-No 38; conjugate 38
EC50: 0.18 nM

B3: (Y-S1-X)p-Fab^2 with Y Gd/DOTA, S1 - (bond), X -Gly-Tyr-NH-(CH2)5-Z1(#S)- (Fab, V domains shown)
VH: EVQLVESGGGLVQPGGSLRLSCAASGFNIRDTYMHWVRQAPGKGLEWVARIDPANGNSRYVPKFQGRFTISADTSRNTAYLQMNSLRAEDTAVYYCAPFGYYVSDYAMAYWGQGTLVTVSS
VL: DIQLTQSPSSLSASVGDRVTITCRAGESVDIFGVGFLHWYQQKPGKAPKLLIYRASNLESGIPSRFSGSGSRTDFTLTISSLQPEDFATYYCQQTNEDPYTFGQGTKVEIKR
modifications: labeling may sit on this chain; sites not stated; labeling portion (MW 1045) on amino groups of the Fab, sites and chain not stated; 1-3 per Fab by MS
notes: also called Ex-No 37; conjugate 37
EC50: 0.23 nM

B4: [Gd/DOTA-NH-(CH2CH2O)3-CH2-C(═O)-NH-CH2-(1,3-Ph)-C(═O)-Met-Gly-Lys*-Z2(#S)]p-Fab^2 (Fab, V domains shown)
VH: EVQLVESGGGLVQPGGSLRLSCAASGFNIRDTYMHWVRQAPGKGLEWVARIDPANGNSRYVPKFQGRFTISADTSRNTAYLQMNSLRAEDTAVYYCAPFGYYVSDYAMAYWGQGTLVTVSS
VL: DIQLTQSPSSLSASVGDRVTITCRAGESVDIFGVGFLHWYQQKPGKAPKLLIYRASNLESGIPSRFSGSGSRTDFTLTISSLQPEDFATYYCQQTNEDPYTFGQGTKVEIKR
modifications: labeling may sit on this chain; sites not stated; labeling portion (MW 1380) bound via 2-iminothiolane-treated amino groups of the Fab, sites and chain not stated; 1 per Fab by MS
notes: also called Ex-No 35; Conjugate No. 35
EC50: 0.43 nM

B5: (Y-S1-X)p-Fab^2 with Y Gd/DOTA, S1 spacer (b), X -Gly-Lys*-Z2(#N)- (Fab, V domains shown)
VH: EVQLVESGGGLVQPGGSLRLSCAASGFNIRDTYMHWVRQAPGKGLEWVARIDPANGNSRYVPKFQGRFTISADTSRNTAYLQMNSLRAEDTAVYYCAPFGYYVSDYAMAYWGQGTLVTVSS
VL: DIQLTQSPSSLSASVGDRVTITCRAGESVDIFGVGFLHWYQQKPGKAPKLLIYRASNLESGIPSRFSGSGSRTDFTLTISSLQPEDFATYYCQQTNEDPYTFGQGTKVEIKR
modifications: labeling may sit on this chain; sites not stated; labeling portion (MW 950) on amino groups of the Fab, sites and chain not stated; 1-3 per Fab by MS
notes: also called Ex-No 27; conjugate 27
EC50: 0.46 nM

B6: (Y-S1-X)p-Fab^2 with Y Gd/DOTA, S1 -NH-(CH2CH2O)3-CH2-C(═O)-NH-CH2-(1,3-Ph)-C(═O)-, X -Gly-Lys*-Z2(#S)- (Fab, V domains shown)
VH: EVQLVESGGGLVQPGGSLRLSCAASGFNIRDTYMHWVRQAPGKGLEWVARIDPANGNSRYVPKFQGRFTISADTSRNTAYLQMNSLRAEDTAVYYCAPFGYYVSDYAMAYWGQGTLVTVSS
VL: DIQLTQSPSSLSASVGDRVTITCRAGESVDIFGVGFLHWYQQKPGKAPKLLIYRASNLESGIPSRFSGSGSRTDFTLTISSLQPEDFATYYCQQTNEDPYTFGQGTKVEIKR
modifications: labeling may sit on this chain; sites not stated; labeling portion (MW 1248) on amino groups of the Fab, sites and chain not stated; 1-2 per Fab by MS
notes: also called Ex-No 25; conjugate 25
EC50: 0.32 nM

B7: (Y-S1-X)p-Fab^2 with Y Gd/DOTA, S1 - (bond), X -Gly-(diph-Ala)-Lys*-Z2(#S)- (Fab, V domains shown)
VH: EVQLVESGGGLVQPGGSLRLSCAASGFNIRDTYMHWVRQAPGKGLEWVARIDPANGNSRYVPKFQGRFTISADTSRNTAYLQMNSLRAEDTAVYYCAPFGYYVSDYAMAYWGQGTLVTVSS
VL: DIQLTQSPSSLSASVGDRVTITCRAGESVDIFGVGFLHWYQQKPGKAPKLLIYRASNLESGIPSRFSGSGSRTDFTLTISSLQPEDFATYYCQQTNEDPYTFGQGTKVEIKR
modifications: labeling may sit on this chain; sites not stated; labeling portion (MW 1149) on amino groups of the Fab, sites and chain not stated; 1-3 per Fab by MS
notes: also called Ex-No 30; conjugate 30
EC50: 0.31 nM

B8: (Y-S1-X)p-Fab^2 with Y Gd/DOTA, S1 given only as drawing CHEM-US-00151, X -Met-Gly-Lys*-Z2(#N)- (Fab, V domains shown)
VH: EVQLVESGGGLVQPGGSLRLSCAASGFNIRDTYMHWVRQAPGKGLEWVARIDPANGNSRYVPKFQGRFTISADTSRNTAYLQMNSLRAEDTAVYYCAPFGYYVSDYAMAYWGQGTLVTVSS
VL: DIQLTQSPSSLSASVGDRVTITCRAGESVDIFGVGFLHWYQQKPGKAPKLLIYRASNLESGIPSRFSGSGSRTDFTLTISSLQPEDFATYYCQQTNEDPYTFGQGTKVEIKR
modifications: labeling may sit on this chain; sites not stated; labeling portion (MW 1101) on amino groups of the Fab, sites and chain not stated; 1-2 per Fab by MS
notes: also called Ex-No 34; conjugate 34
EC50: 0.38 nM

From patent US20220096653A1, “CONJUGATE COMPRISING LIGAND AND CEACAM5 ANTIBODY FAB FRAGMENT” (ASTELLAS PHARMA INC., priority 2019, published 2022)
